Measurements as given in patent US20190040153A1 (Novartis, published 2019).
Numbering of substitutions follows the chain as printed.

T1: human β-klotho (soluble, recombinant) (human, UniProt Q86Z14 53-997, limits assumed)
T1 construct: also called recombinant human β-klotho; beta-klotho
T1 sequence: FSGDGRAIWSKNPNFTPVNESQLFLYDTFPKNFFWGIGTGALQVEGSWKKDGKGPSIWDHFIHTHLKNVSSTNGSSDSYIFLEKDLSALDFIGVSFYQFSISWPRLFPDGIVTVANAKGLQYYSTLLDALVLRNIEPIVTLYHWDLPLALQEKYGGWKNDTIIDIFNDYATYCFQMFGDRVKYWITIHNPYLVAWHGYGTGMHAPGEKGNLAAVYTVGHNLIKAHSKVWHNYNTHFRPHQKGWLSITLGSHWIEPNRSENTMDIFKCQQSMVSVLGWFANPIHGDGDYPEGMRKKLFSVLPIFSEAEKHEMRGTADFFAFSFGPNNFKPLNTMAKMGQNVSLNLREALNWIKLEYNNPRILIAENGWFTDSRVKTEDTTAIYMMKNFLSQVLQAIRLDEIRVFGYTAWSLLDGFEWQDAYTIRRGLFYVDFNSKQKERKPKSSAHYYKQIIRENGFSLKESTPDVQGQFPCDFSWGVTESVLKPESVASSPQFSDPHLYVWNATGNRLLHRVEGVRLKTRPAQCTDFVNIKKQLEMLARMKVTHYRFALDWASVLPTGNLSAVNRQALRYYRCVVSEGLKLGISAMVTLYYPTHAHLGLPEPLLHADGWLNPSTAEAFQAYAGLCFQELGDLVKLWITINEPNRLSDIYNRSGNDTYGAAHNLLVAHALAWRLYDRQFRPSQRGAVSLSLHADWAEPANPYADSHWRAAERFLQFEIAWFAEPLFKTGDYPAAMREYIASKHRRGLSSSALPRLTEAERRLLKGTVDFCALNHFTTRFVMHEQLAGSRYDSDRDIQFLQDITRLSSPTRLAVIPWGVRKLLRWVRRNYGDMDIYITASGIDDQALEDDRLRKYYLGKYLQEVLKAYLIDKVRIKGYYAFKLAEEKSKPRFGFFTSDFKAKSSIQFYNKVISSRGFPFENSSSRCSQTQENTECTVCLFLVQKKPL

B1: NOV006 (antibody, human IgG1, kappa, V domains shown)
VH: QVQLQESGPGLVKPSQTLSLTCTVSGYSITSGYTWHWIRQHPGKGLEWIGYIHYSVYTNYNPSLKSRVTISRDTSKNQFSLKLSSVTAADTAVYYCARRTTSLERYFDVWGQGTLVTVSS
VL: EIVMTQSPATLSLSPGERATLSCRASQDISNYLNWYQQKPGQAPRLLIYYTSRLQSGIPARFSGSGSGADYTLTISSLQPEDFAVYFCQQGNTLPYTFGQGTKLEIKR
notes: Humanized mAb derived from mouse hybridoma 127F19
B2: NOV004 (antibody, human IgG1, kappa, V domains shown)
VH: EVQLVESGGGLVKPGGSLRLSCAVSGYSITSGYTWHWVRQAPGKGLEWLSYIHYSVYTNYNPSVKGRFTISRDTAKNSFYLQMNSLRAEDTAVYYCARRTTSLERYFDVWGQGTLVTVSS
VL: DIQMTQSPSSLSASVGDRVTITCQASQDISNYLNWYQQKPGKAPKLLIYYTSRLQSGVPSRFTGSGSGADYTFTISSLQPEDIATYFCQQGNTLPYTFGQGTKLEIKR
notes: as for B1
B3: NOV005 (antibody, human IgG1, kappa, V domains shown)
VH: B1 VH
VL: B2 VL with T63S
notes: as for B1

Key:
[1] = target: human FGFR1c_β-klotho receptor complex (on HEK293 cells) (human, UniProt P11362 22-822); test: cell-based or functional assay
[2] = target: cynomolgus monkey FGFR1c_β-klotho receptor complex (on HEK293 cells) (cynomolgus monkey; human, UniProt A0A2K5WB58 1-1044; P11362 22-822); test: cell-based or functional assay
[3] = target: T1, human β-klotho (soluble, recombinant); test: Biacore kinetics; IgG captured by anti-human Fc, human β-klotho as analyte
Protocol: Binding affinities of antibodies were determined using Biacore kinetic analysis. A Series S Sensor Chip CMS (GE Healthcare, Cat. No. BR-1005-30) was equilibrated to ambient temperature for approximately 30 minutes The system was primed with 1×HBS-EP+ buffer (10×soln, GE Healthcare, Cat. No. BR-1006-69) and the chip was loaded into the Biacore instrument. The chip was normalized using BIAnormalizing (GE Healthcare, Cat. No. BR-1006-51) solution and the chip was conditioned with 50 mM NaOH using a flow rate of 60 μL/minute for all flow paths. The 30 second injection was repeated three times with a wait time of 60 seconds. 10 mM sodium acetate pH 5.0 was injected at 60 μL/minute for 120 seconds and repeated twice. After a new cycle was started for immobilizing the anti-human IgG Fc using the Human Antibody Capture Kit (GE Healthcare, Cat. No. BR-1008-39). The anti-human Fc Ab was diluted to 50 μg/mL in immobilization buffer (10 mM sodium acetate pH 5.0). The amine coupling reagents were mixed 1:1 (EDC and NHS) and injected for 7 minutes at 10 μL/minute. Then anti-human Fc Ab was injected for 6 minutes at 10 μL/minute. Lastly ethanolamine was injected for 7 minutes at 10 μL/minute with a wait time of 60 seconds. This should result in immobilization of approximately 8000-10000 RU. Then we performed test injections for an Rmax of 10 RUs (capture levels=˜28 RUs) for NOV004, NOV005 and NOV006. This was done using a flow rate of […] and a 3 M MgCl₂ regeneration buffer. Each flow cell was evaluated each time due to changes in chip surface, affinity of IgGs, IgG protein quality and differences in dilutions. We started with an IgG concentration of 0.5 ug/mL and increased (or decreased) the concentration depending on the results from the sample injections. […] After capturing parameters were determined for each antibody in each flow cell, human β-klotho at various concentrations was passed over the chip and kₐ (1/Ms), kd (1/s), KD (M), and Rmax (RU) were calculated by Biacore kinetics.
In vitro work was done to show the binding and cell activity properties of NOV004, NOV005, and NOV006. […]

human FGFR1c_β-klotho receptor complex (on HEK293 cells), sequence (chain, as listed by the source, chain 1 of 2): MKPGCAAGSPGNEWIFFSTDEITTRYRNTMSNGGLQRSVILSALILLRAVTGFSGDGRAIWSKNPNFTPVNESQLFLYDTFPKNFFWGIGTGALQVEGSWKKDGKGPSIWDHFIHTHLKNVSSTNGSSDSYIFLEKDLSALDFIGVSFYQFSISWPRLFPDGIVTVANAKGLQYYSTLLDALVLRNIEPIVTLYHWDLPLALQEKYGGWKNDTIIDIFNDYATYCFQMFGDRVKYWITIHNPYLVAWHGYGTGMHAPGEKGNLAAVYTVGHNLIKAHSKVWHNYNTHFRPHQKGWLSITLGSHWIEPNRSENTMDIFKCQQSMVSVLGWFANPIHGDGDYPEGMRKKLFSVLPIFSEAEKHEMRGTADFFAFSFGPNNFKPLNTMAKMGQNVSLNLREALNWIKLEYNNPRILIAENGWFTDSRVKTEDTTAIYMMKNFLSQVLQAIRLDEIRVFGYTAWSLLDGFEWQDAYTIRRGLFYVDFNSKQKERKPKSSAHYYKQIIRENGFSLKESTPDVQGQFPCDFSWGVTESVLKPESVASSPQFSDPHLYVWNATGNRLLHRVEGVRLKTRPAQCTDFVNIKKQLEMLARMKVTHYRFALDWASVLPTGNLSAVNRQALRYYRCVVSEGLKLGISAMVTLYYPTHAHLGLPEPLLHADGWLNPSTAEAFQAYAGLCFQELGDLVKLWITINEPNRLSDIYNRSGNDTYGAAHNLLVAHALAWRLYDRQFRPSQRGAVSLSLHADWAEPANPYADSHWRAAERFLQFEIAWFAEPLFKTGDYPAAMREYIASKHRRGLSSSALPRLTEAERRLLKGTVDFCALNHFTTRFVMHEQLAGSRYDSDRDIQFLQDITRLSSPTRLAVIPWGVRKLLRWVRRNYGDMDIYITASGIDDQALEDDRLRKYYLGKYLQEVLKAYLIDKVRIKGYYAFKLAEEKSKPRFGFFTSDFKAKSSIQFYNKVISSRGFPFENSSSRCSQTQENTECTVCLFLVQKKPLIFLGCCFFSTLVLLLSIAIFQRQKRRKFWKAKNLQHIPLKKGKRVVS
human FGFR1c_β-klotho receptor complex (on HEK293 cells), sequence (P11362 22-822, chain 2 of 2): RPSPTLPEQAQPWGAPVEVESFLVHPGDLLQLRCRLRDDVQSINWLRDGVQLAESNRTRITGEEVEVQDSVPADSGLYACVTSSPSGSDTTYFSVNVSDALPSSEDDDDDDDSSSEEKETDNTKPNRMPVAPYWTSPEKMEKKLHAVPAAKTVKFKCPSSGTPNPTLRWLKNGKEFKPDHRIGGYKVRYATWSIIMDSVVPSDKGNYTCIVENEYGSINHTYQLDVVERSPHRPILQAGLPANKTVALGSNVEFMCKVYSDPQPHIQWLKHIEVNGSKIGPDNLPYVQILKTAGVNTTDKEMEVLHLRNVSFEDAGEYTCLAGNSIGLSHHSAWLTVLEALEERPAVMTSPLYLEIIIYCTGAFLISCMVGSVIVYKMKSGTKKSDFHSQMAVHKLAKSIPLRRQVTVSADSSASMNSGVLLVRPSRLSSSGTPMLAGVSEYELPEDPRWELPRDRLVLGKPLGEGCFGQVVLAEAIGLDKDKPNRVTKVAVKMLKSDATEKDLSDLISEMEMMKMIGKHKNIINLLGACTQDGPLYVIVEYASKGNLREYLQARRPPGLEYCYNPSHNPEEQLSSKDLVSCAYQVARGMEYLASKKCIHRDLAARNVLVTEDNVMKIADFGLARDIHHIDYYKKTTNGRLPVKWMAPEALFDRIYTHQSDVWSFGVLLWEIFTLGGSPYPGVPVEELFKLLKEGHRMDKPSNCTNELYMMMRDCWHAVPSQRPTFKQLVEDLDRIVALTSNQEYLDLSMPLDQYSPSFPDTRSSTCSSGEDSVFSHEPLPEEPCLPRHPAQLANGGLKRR
cynomolgus monkey FGFR1c_β-klotho receptor complex (on HEK293 cells), sequence (chain, as listed by the source, chain 1 of 2): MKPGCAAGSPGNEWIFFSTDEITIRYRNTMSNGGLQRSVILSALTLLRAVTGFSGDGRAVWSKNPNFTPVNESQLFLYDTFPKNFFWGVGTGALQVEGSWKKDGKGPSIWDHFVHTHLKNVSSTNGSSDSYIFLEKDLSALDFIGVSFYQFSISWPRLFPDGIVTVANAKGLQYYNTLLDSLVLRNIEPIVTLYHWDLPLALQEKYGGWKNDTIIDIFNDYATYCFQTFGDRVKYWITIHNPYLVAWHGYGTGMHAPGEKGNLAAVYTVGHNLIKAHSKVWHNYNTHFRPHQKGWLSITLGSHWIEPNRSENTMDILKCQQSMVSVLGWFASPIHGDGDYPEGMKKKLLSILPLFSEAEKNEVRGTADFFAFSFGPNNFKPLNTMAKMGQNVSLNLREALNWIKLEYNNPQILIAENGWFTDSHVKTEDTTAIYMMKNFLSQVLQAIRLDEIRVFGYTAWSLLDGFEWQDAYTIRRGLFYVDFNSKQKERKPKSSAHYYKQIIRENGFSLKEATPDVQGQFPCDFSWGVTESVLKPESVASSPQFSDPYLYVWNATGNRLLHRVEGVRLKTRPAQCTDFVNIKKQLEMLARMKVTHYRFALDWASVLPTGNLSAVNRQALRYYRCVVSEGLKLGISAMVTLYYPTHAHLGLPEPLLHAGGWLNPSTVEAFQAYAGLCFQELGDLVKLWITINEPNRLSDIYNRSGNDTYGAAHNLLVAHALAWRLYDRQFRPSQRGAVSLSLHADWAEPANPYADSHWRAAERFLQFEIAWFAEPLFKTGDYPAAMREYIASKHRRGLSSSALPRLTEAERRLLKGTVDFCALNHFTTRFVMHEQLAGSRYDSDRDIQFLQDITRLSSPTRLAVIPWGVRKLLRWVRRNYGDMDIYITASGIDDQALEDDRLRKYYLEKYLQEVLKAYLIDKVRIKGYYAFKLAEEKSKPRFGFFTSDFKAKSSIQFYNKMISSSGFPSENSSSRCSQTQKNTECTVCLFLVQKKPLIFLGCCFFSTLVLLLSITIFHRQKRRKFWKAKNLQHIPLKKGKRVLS
cynomolgus monkey FGFR1c_β-klotho receptor complex (on HEK293 cells), sequence (P11362 22-822, chain 2 of 2): as the sequence (P11362 22-822, chain 2 of 2) above

Binder	pERK activation EC50 [1] [nM]	pERK activation EC50 [2] [nM]	Kd [3] [nM]
B1	~4	~18	~0.4
B2	~3	~20	~0.3
B3	~3	~16	~0.3
